Laboratory results as given in patent US20030140381, “Genes and regulatory DNA sequences associated with stress-related gene expression in plants and methods of using the same” (Pioneer Hi-Bred International, Inc., published 2003).

How the values were obtained:
[1] = target: T1, ZmABI4 (maize ABI4, AP2-domain transcription factor) (Zea mays); assay: EMSA; described as high affinity
[2] = target: T1, ZmABI4 (maize ABI4, AP2-domain …); assay: EMSA

T1 sequence (chain, as listed by the source): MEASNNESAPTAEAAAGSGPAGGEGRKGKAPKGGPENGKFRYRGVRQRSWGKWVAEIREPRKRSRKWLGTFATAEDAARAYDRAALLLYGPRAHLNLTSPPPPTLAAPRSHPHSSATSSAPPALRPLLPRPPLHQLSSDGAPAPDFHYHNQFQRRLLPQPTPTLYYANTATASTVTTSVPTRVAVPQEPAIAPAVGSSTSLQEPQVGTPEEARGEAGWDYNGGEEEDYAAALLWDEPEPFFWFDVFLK

B1: Adh1 promoter element (-246 to -229) (dsDNA)
DNA 1: CGCCGCCACCGCTTGGCG
DNA 2: CGCCAAGCGGTGGCGGCG
**Q.** Does B1 bind [1]?
**A.** binds

B2: ZmABI4 upstream element (-175 to -158) (dsDNA)
DNA 1: TTTGACCACCGCCCCTCT
DNA 2: AGAGGGGCGGTGGTCAAA
**Q.** Does B2 bind [2]?
**A.** binds
